# The DeepSol protein solubility set
# Assay: soluble on expression in E. coli; label from the status in PepcDB or PDB records
row,Sequence,soluble on expression in E. coli
1,SPNATPRRPLQELRRAELVEIIVETEAQTGVSGINVAGGGKEGIFVRELREDSPAARSLSLQEGDQLLSARVFFENFKYEDALRLLQCAEPYKVSFCLKRTVPTGDLALRPGTVSGYEIKGPRAKVAKLNIQSLSPVKKKKMVPGALGVPADLAPVDVEFSFPKFSRLRRGLKAEAVKGPVPAAPARRRLQLPRLRVREVAEEAQAARLAAAAPPPRKAKVEAEVAAGARFTAPQVELVGPRLPGAEVGVPQVSAPKAAPSAEAAGGFALHLPTLGLGAPAPPAVEAPAVGIQVPQVELPALPSLPTLPTLPCLETREGAVSVVVPTLDVAAPTVGVDLALPGAEVEARGEAPEVALKMPRLSFPRFGARAKEVAEAKVAKVSPEARVKGPRLRMPTFGLSLLEPRPAAPEVVESKLKLPTIKMPSLGIGVSGPEVKVPKGPEVKLPKAPEVKLPKVPEAALPEVRLPEVELPKVSEMKLPKVPEMAVPEVRLPEVELPKVSEMKLPKVPEMAVPEVRLPEVQLLKVSEMKLPKVPEMAVPEVRLPEVQLPKVSEMKLPEVSEVAVPEVRLPEVQLPKVPEMKVPEMKLPKVPEMKLPEMKLPEVQLPKVPEMAVPDVHLPEVQLPKVPEMKLPEMKLPEVKLPKVPEMAVPDVHLPEVQLPKVPEMKLPKMPEMAVPEVRLPEVQLPKVSEMKLPKVPEMAVPDVHLPEVQLPKVCEMKVPDMKLPEIKLPKVPEMAVPDVHLPEVQLPKVSEIRLPEMQVPKVPDVHLPKAPEVKLPRAPEVQLKATKAEQAEGMEFGFKMPKMTMPKLGRAESPSRGKPGEAGAEVSGKLVTLPCLQPEVDGEAHVGVPSLTLPSVELDLPGALGLQGQVPAAKMGKGERAEGPEVAAGVREVGFRVPSVEIVTPQLPAVEIEEGRLEMIETKVKPSSKFSLPKFGLSGPKVAKAEAEGAGRATKLKVSKFAISLPKARVGAEAEAKGAGEAGLLPALDLSIPQLSLDAHLPSGKVEVAGADLKFKGPRFALPKFGVRGRDTEAAELVPGVAELEGKGWGWDGRVKMPKLKVSTAGQVVTEGHDAGLRMPPLGISLPQVELTGFGEAGTPGQQAQSTVPSAEGTAGYRVQVPQVTLSLPGAQVAGGELLVGEGVFKMPTVTVPQLELDVGLSREAQAGEAATGEGGLRLKLPTLGARARVGGEGAEEQPPGAERTFCLSLPDVELSPSGGNHAEYQVAEGEGEAGHKLKVRLPRFGLVRAKEGAEEGEKAKSPKLRLPRVGFSQSEMVTGEGSPSPEEEEEEEEEGSGEGASGRRGRVRVRLPRVGLAAPSKASRGQEGDAAPKSPVREKSPKFRFPRVSLSPKARSGSGDQEEGGLRVRLPSVGFSETGAPGPARMEGAQAAAV,soluble
2,MIHITSQACFLWHTTINKICNRPMFNPLTIRFWGVRGSIPCPGSHTVRYGGNTPCVEIQANGQRIILDGGTGLRVLGEHLMGQQPVTAHLFFTHTHWDHIQGFPFFQPAFVPGNQFHIYAVPGKNGQGIERRLNDQMLHPNFPVPLQIMGGDLRFYDLEVGERVHLGDGVVVSNEALNHPGGGVGYRVSWQGIHVAYITDTEHLPDRLHPGAFALADHADVMIYDATYTDEEYYHPQQSKVGWGHSTWQEAVKLAQAAQVKQLILFHHDPSHDDDCLDRIGELARAQFPQTLLAREGLIISVYPNVIHFPATPQASLEHHHHHH,not soluble
3,MEHITLFTDILPEEQERMRICFHAREMTFRNGETIMEYSSSMKKIGLILYGRAILYCCDTEGNQYLIDEFNKDAVFGEPFLLPADSQHYYVCAAEETKIMFIDYEHVIKRCDQACYHHSQMVSNLLQLTAIQSRQQNERIYMLSRSSTRKKLMAYLNALSTEKHSKDLKLPMSYTALAQYLSVDRSAMTRELKNLEEEGIIKKSGKQIHII,not soluble
4,MQKFIIHKGIACPLEYANIDTDQIIPKQFLLAVSKQGFGKHLFHDLRYLDDKESVLNMDFNLNKKEYQNSSILVSFENFGSGSSREHAPWALVDYGIRAIIAPSFADIFKNNALGNGLLTIELAKDEVLEIVDELKKSQDKNIEISLLEKRVFFKDKIFSFDLDDFHRICLLEGLDNIALTLKHEAQIKAYEKNSKSFLV,soluble
5,MKVKKWVTQDFPMVEESATVRECLHRMRQYQTNECIVKDREGHFRGVVNKEDLLDLDLDSSVFNKVSLPDFFVHEEDNITHALLLFLEHQEPYLPVVDEEMRLKGAVSLHDFLEALIEALAMDVPGIRFSVLLEDKPGELRKVVDALALSNINILSVITTRSGDGKREVLIKVDAVDEGTLIKLFESLGIKIESIEKEEGF,not soluble
6,MLQKTKGIVLHTLKYNDTSIIVDMYTELSGRTSFLVPVPRSRKAAVKSVLFQPLSFIEFEADFRPNATLYRVKEAKSFYPFTSIPYDPYKSSMALFLAEFLYRAVREEAENRPLFAYLQHSVIWLDECREGFANFHLVFLMRLSRFLGLYPNLEDYHTGDYFDLLNACFTSTRPQLHSSYINPEEAGRLRQLMRMNYETMHLFGMSRAERTRCLTIMNDYYRLHLPDFPALKSLDVLKELFD,not soluble
7,KYIDRAGKLAYDSHIAYHRIKGLSQTVLERVQEAVVVINAEGLAVLFNRKAKDLFPALEIGRRAGLSDSAAELWDQASPHTFEYVLGTPGLNAGIRAVPVNKGSDKLLILYIRPQSEIQAEALSVKLAALGQLTANLAHEIRNPMSAIRHANDLLRENMEAGAADPFNAKLCKIIDGNICRIDKMLEDISSLNKRNKTERETIGLIPFWEEFKQEFLLGHPDAADCIRPDIQGGSPTAYFDPAHLRQIMWNLANNAWRHSRKQPGSISVTIRPAQKNTVCILFADRPKCRNTCSNPFTPRRKTAPASGCMSPANWRTPISAI,not soluble
8,MGSDKIHHHHHHMPDAAGGVRVPHPPRPFDRPDRPAARLCRTQQLHPRVPPLERHLAPRLAGTAEPDRALKPQDKSLSKADPMTRLLLLEGNTADKRARGRELGVRSSSEIYAQAIAAHFPRIELDVLNGADEGEAIPHDRSWADYDGFVVTGSSLHAYDREFAVTNQIALVAQAAEHGLPIFGSCWGLQIAVMAAGGEVAYNPRGREVGFARKIALNDAGRAHPMFGAKQHVFDAPCIHYDEVVRMPDGATLLASNGHSLVQAAVIPLGQSEVWAVQYHPEFDLAQLVQLYTLYAADMIAQGFFSNEAELVAYRDKIARLAQDPTDAGLAWQLGIDADVLDPRQRAAEIIAWIESRVLNGT,not soluble
9,MIELEVFPHRYLKAETTEKFLNRAYSLSKVQRVVIHGESLPNKVGYGPAKGTPVNHSEKKEITVKGVPVELMLQVGRLWVLLDDESEIEKIEEICKDLFPFGYRLTKGKFLRNDPTVSDFIKYGESAVDDIDKRLLGATDPRSKFDSSVTIIPKSEKNELEHHHHHH,soluble
10,MADETDITHTKWLAYSKSLKIDLTYPGINGIGIIYNIQADQLDDYIEKQRVLRPNYAIHPSHNESEYWPITYVEPAAPNKKAIGLDMAFETNRYSSIKKARDTGVAQLTGPITLVQDAKKTPGFLFYTPFYKNGTKPESTEARRDAIDGVTYAPFIMKNLMQGTLAEKNRHVSIQIRDAGDLLFDDHDDESVLDADANPLFTKEQDISLYGRTWSFTIQSNLDFRDESAANQLEHHHHHH,soluble
11,MGSDKIHHHHHHKGHRVTGSDANVYPPMSTQLEDQGIELIQGFDPSQLGEAGHYPDLVVIGNAMSRGNPCVEAVLNIGIPYTSGPQFLADHILPERWVLAVSGTHGKTSTSSMLAWILDDCGYEPGFLIGGVPQNFGVSARLGKTAFFVVEADEYDSAFFDKRSKFVHYHPRTLVINNLEFDHADIFADLAAIQKQFNHLVRTVPGEGKIVWPADSHAVKQTIDMGCWSEQETYHLAESANGWYGKALSDDCHRFEVFFDGESQGILEWDLIGQHNIENAMMAIAAARHVGVKPSAAIEALAKFMPPKRRLELLGTVNGVSVYDDFAHHPTAIATTLKGMRAKVGQSKITVVLEPRSNTMKSGVHKDTLAFSMMQADEAFLYQADTIDWNMKEAMEAAVIPVTVLHQIDDVVAKVTATAKAGDTIVVMSNGGFGGLHKKLLAALELRSTVELV,not soluble
12,MNILLLDGGKAFGHSHGGLNRTLHKKAKEVLTALGHNVQETVIDAGYDVEAEIEKFVWMDAVIWQMPGWWMHEPWTVKKYIDEVLTAGHGKLYQSDGRHSVNPTEGYGTGGLLQGKKHMISLTWNAPIEAFTREGDFFEGKGVDVLYMHFHKANEFLGMTRLPTFLCNDVVKNPQVEKYLADYQAHLEKVFG,not soluble
13,MTSRTPLVSVLPDFPWDSLASAKAKAASHPDGIVNLSVGTPVDPVAPSIQIALAEAAGFSGYPQTIGTPELRAAIRGALERRYNMTKLVDASLLPVVGTKEAIALLPFALGISGTVVIPEIAYPTYEVAVVAAGCTVLRSDSLFKLGPQIPSMMFINSPSNPTGKVLGIPHLRKVVKWAQENNVILAADECYLGLGWDDENPPISILDPRVCDGDHTNLIAIHSLSKTSNLASYRAGYLVGDPALIGELTEVRKNLGLMVPFPIQQAMIAALNDDDQEAGQKLTYAIRRAKLMRALLESGFQVDNSEAGLYLWATREEPCRDTVDWFAERGILVAPGDFYGPRGAQHVRVAMTETDERVDAFVSRLS,soluble
14,MKEAGILFEELVSIMEKLRSPEGCEWDRKQTHESLKPYLIEECYELIEAIDEKNDDMMKEELGDVLLQVVFHAQIARERGAFTIEDVIRTLNEKLIRRHPHVFGDSPGYSYKQWEDIKAQEKGKKKSSRIGEINPLVPALSMARRIQENASQVGFDWKDPEGVYEKIEEELKELKEAKDPRELEEEFGDLLFSIVNLSRFLNVDPESALRKATRKFVERFKKMEELIEKDGLVLEELPIEKLDEYWEKAKGGDET,soluble
15,GPGSMSLVESQKDMADLLPCNEECGGDYGRYSFGQTDTEVIVKVPLPSDTPTKMINVDVKVSSLTIGMKGQSPLISGDLYKPVKVDECTWCVEDKSVLVVTLVKTNAQYEEWWPCVTTNERQIDMKTFRPPSKHISELDDSARATIAKMMFDQRQKALNLPSSDELRLRELMQRGGTSN,soluble
16,MRGLTPEQTLMLADAFCAQTSGDLSVRDYAALNAIAAVTTAHIHAVVVFPTAHHMVKYVRSLVIQLSPLDDRNTDFADFLVAVLRDLNGL,not soluble
17,MSLVGNMNREALFKTLTTGYLHFWSLSRKKLWLKGETSGNFQIIEEFKVDCDADAVLFKVTSLGPICHTGNYTCFYRSYDELVNSKSEGHHHHHH,not soluble
18,STFQFNFTIEDHLENELTPIRDGALTLDSSKELSVSESQKGEERDRKCSAEQFDLPQDHLWEHKSMENAAPSQDTDSPLSAASSSRNLEPHGKQPSLRAAKEHAMPKDLKKMLENKVIETLPGFQHVKLSVVKTILLKENFPGENIVSKSFSSHSDLITGVYEGGLKIWECTFDLLAYFTKAKVKFAGKKVLDLGCGSGLLGITAFKGGSKEIHFQDYNSMVIDEVTLPNVVANSTLEDEENDVNEPDVKRCRKPKVTQLYKCRFFSGEWSEFCKLVLSSEKLFVKYDLILTSETIYNPDYYSNLHQTFLRLLSKNGRVLLASKAHYFGVGGGVHLFQKFVEERDVFKTRILKIIDEGLKRFIIEITFKFPG,not soluble
